# Like-named read-outs stand apart in the source and are kept apart here.
# Experiments:
# [1] = molecular target: full length human PAR-2 (human) (UniProt P55085); assay: cell-based or functional assay
# [2] = molecular target: full length mouse PAR-2 (mouse) (UniProt P55086); assay: cell-based or functional assay
# monkey PAR-2 (monkey) = assay: cell-based or functional assay
# [3] = molecular target: T1, Peptide B (human PAR-2), N-terminal biotinylated (Human); assay: SPR, peptide immobilized
# T1 sequence (peptide, N-terminal biotin via G4S linker): GGGGSSLIGKVDGTSHVTG
# [4] = molecular target: T2, Peptide B (human PAR-2), C-terminal biotinylated (Human); assay: SPR, peptide immobilized
# T2 sequence (peptide, C-terminal biotin via G4S linker): SLIGKVDGTSHVTGGGGGS
# [5] = molecular target: T2, Peptide B (human PAR-2), C-terminal biotinylated (Human); assay: SPR, peptide immobilized; remark: listed apart in the source
# [6] = molecular target: Peptide B (human PAR-2), unbiotinylated (Human); assay: SPR, antibody captured
# [7] = molecular target: full length human PAR-2 (human) (UniProt P55085); assay: cell ELISA, 10 ug/ml antibody
# [8] = molecular target: C-terminal biotinylated human PAR-2 14-mer peptide SEQ ID NO:887 (Val-42 and Asp-43 to Ala) (human); assay: BLI Exp2
# C-terminal biotinylated human PAR-2 14-mer peptide SEQ ID NO:887 (Val-42 and Asp-43 to Ala) (human), sequence (peptide, as listed by the source): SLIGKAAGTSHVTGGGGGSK
# [9] = molecular target: C-terminal biotinylated human PAR-2 14-mer peptide SEQ ID NO:885 (Val-42 to Ala) (human); assay: BLI Exp2
# C-terminal biotinylated human PAR-2 14-mer peptide SEQ ID NO:885 (Val-42 to Ala) (human), sequence (peptide, as listed by the source): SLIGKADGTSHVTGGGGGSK
# [10] = molecular target: C-terminal biotinylated human PAR-2 14-mer peptide SEQ ID NO:886 (Asp-43 to Ala) (human); assay: BLI Exp2
# C-terminal biotinylated human PAR-2 14-mer peptide SEQ ID NO:886 (Asp-43 to Ala) (human), sequence (peptide, as listed by the source): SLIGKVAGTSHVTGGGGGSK
# [11] = molecular target: C-terminal biotinylated human PAR-2 14-mer peptide SEQ ID NO:884 (…, wild-type) (human); assay: BLI Exp2
# C-terminal biotinylated human PAR-2 14-mer peptide SEQ ID NO:884 (…, wild-type) (human), sequence (peptide, as listed by the source): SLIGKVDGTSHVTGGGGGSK
# full length human PAR-2 (human), sequence (P55085 26-397 G138A limits assumed): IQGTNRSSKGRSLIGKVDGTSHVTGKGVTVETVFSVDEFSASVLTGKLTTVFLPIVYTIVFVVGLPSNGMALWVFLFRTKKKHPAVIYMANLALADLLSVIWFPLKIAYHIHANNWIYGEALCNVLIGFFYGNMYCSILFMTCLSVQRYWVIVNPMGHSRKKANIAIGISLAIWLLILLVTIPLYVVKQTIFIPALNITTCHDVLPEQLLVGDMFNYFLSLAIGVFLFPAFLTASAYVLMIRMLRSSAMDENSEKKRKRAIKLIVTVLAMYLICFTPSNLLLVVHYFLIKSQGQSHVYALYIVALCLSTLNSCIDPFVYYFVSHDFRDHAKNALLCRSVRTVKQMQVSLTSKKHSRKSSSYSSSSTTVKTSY
# full length mouse PAR-2 (mouse), sequence (P55086 other isoform, or with tags, fused parts or gaps limits assumed): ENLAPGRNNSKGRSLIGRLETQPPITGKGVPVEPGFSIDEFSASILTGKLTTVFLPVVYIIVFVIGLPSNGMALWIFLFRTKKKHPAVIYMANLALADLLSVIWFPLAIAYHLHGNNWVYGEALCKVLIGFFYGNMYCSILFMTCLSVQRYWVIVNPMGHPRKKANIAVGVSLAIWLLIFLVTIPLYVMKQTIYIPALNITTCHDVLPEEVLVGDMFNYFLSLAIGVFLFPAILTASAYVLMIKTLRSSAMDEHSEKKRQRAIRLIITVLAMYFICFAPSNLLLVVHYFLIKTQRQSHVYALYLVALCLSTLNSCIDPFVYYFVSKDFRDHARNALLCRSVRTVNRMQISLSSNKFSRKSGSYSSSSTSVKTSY
# Human Kallikrein 5, sequence (Q9Y337 67-293 limits assumed): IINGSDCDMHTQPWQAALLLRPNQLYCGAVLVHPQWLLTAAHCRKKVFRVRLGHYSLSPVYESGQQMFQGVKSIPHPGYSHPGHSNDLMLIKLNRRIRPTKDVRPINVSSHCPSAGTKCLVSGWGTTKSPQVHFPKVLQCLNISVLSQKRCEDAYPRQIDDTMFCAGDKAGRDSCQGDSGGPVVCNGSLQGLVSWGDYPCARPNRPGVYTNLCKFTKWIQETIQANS
substance,measurement,setting,value
Tryptase (Table 22) (enzyme),"EC50 of activator, NF-kB-luciferase",[1],61.1 nM
Bovine Factor Xa (from UniProt P00743 41-492) (enzyme),"EC50 of activator, NF-kB-luciferase",[1],27.2 nM
same,"EC50 of activator, NF-kB-luciferase",[2],46.3 nM
same,"EC50 of activator, NF-kB-luciferase",monkey PAR-2 (monkey),58.2 nM
"Sam11, commercially available mouse monoclonal antibody that binds human PAR-2 (Santa Cruz Biotechnology)",Kd,[3],0.279 nM
same,T1/2,[3],32 min
same,Kd,[4],0.99 nM
same,T1/2,[4],19 min
same,Kd,[5],0.935 nM
same,T1/2,[5],14 min
same,Kd,[6],149 nM
same,T1/2,[6],0.1 min
same,A450 ratio (293/D9/hPAR-2rec to 293/D9 cells),[7],1.49
Human Kallikrein 5 (from UniProt Q9Y337 67-293) (enzyme),"EC50 of activator, NF-kB-luciferase",[1],28 nM
same,"EC50 of activator, NF-kB-luciferase",monkey PAR-2 (monkey),16.8 nM
Human Pancreatic Trypsin (enzyme),"EC50 of activator, NF-kB-luciferase",monkey PAR-2 (monkey),2.4 nM
Human Factor Xa (from UniProt P00742 41-488) (enzyme),"EC50 of activator, NF-kB-luciferase",[1],46.3 nM
same,"EC50 of activator, NF-kB-luciferase",[2],78.7 nM
"Comparator 2, antibody having the heavy and light chain variable regions of the antibody referred to as Sam-11 (Molino et al. 1998)",% Rel Binding,[8],87%
same,% Rel T1/2,[8],27%
same,% Rel Binding,[9],120%
same,% Rel T1/2,[9],159%
same,% Rel Binding,[10],88%
same,% Rel T1/2,[10],27%
same,% Rel Binding,[11],100%
same,% Rel T1/2,[11],100%
Non-Specific Control (non-PAR-2 specific control antibody),"IC50, calcium mobilization FLIPR, 100 nM Trypsin",[1],> 1000 nM

# — patent publication US20110059095A1
